Our source for the protein stability index values is the supplement of paper PMC10724198.

± gives the standard deviation of the averaged measurements.

This series relates to Saccharomyces cerevisiae. The series can be described thus: protein stability index of tFT-peptide fusion (C-terminal peptide) (PSI (0-1 scale)); higher = more stable (slower turnover). As to conditions: temperature: 30 C. The protocol: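 MPS profiling in S. cerevisiae of the yeast C-terminome library: the last 12 aa of each annotated ORF are fused to the C-terminus of a sfGFP-mCherry timer, after a GGGS linker. Cells are FACS-sorted into 8 mCherry/sfGFP bins and deep-sequenced. PSI runs from 0 (unstable) to 1 (stable); wild type and das1Δ backgrounds, two technical replicates each.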

[1] abbreviates: genetic background: das1 deletion.

As to HKKEVVSKGDDY [MAP2 C-terminal 12 aa], the protein stability index runs as follows: under setting [1], 0.6695 ± 0.0046; (genetic background: wild type) 0.653 ± 0.026.

As to HLGKFFVKQKIL [ERP1 C-terminal 12 aa], the protein stability index stood at 0.696 ± 0.042 under setting [1] and 0.152 ± 0.0043 (genetic background: wild type).

As for HLSGSTIDTTVV [DSE1 C-terminal 12 aa], the protein stability index came out at 0.6624 ± 0.0029 under setting [1] and 0.685 ± 0.012 (genetic background: wild type).

For the sequence HSDSADTHTHKH [MMT2 C-terminal 12 aa], the protein stability index was found to be 0.693 ± 0.025 under setting [1] and 0.696 ± 0.029 (genetic background: wild type).

For the sequence HSITEGSYIYIK [YOR062C C-terminal 12 aa], the protein stability index was determined as 0.687 ± 0.062 under setting [1] and 0.676 ± 0.05 (genetic background: wild type).

“HSVWSQSTINND [YML034C-A C-terminal 12 aa]” had a protein stability index under setting [1] of 0.725 ± 0.015 and a protein stability index (genetic background: wild type) of 0.702 ± 0.066.

HVCVDVDVIVST [TRM12 C-terminal 12 aa] had a protein stability index under setting [1] of 0.6505 ± 0.0056 and a protein stability index (genetic background: wild type) of 0.6574 ± 0.001.

HVKDHQPGKPFI [YDR433W C-terminal 12 aa]: the protein stability index runs as follows: under setting [1], 0.689 ± 0.023; (genetic background: wild type) 0.708 ± 0.063.

Consider “HYPSSDIRGDIL [YOR161C-C C-terminal 12 aa]”, for which the protein stability index is, setting by setting: under setting [1], 0.6911 ± 0.0014; (genetic background: wild type) 0.69973 ± 0.00023.

As to IAFPQRKYAIKA [RPL35A C-terminal 12 aa], the protein stability index runs as follows: under setting [1], 0.299 ± 0.024; (genetic background: wild type) 0.33 ± 0.01.

For IASQNSLGWNEV [MSB2 C-terminal 12 aa], the protein stability index amounted to 0.69667 ± 0.00047 under setting [1] and 0.693 ± 0.024 (genetic background: wild type).

ICYTFKHLVSHK [FRT2 C-terminal 12 aa]: the protein stability index under setting [1] was 0.691 ± 0.016 and the protein stability index (genetic background: wild type) worked out at 0.6574 ± 0.0033.

For IDEMYRGGISMN [AIM32 C-terminal 12 aa], the protein stability index reads like this: under setting [1], 0.693 ± 0.013; (genetic background: wild type) 0.69 ± 0.024.

In the case of IEAPQFYRYWSA [SWI3 C-terminal 12 aa], the protein stability index runs as follows: under setting [1], 0.724 ± 0.033; (genetic background: wild type) 0.706 ± 0.011.

Consider IEEMLEIISGYA [RPC17 C-terminal 12 aa], for which the protein stability index runs as follows: under setting [1], 0.5664 ± 0.0013; (genetic background: wild type) 0.584 ± 0.008.

In the case of IEERLVAIAEQD [SCL1 C-terminal 12 aa], the protein stability index is, setting by setting: under setting [1], 0.7091 ± 0.0065; (genetic background: wild type) 0.7 ± 0.017.

IELIQNMNKESF [YOR131C C-terminal 12 aa] had a protein stability index under setting [1] of 0.696 ± 0.03 and a protein stability index (genetic background: wild type) of 0.692 ± 0.015.

On to IEQYLQTYGASA [URA5 C-terminal 12 aa], for which the protein stability index was found to be 0.708 ± 0.011 under setting [1] and 0.695 ± 0.014 (genetic background: wild type).

For the sequence IEVGADSYAEEF [TUB3 C-terminal 12 aa], the protein stability index is 0.689 ± 0.018 under setting [1] and 0.671 ± 0.014 (genetic background: wild type).

With IEVGNGASVLIQ [TRS65 C-terminal 12 aa], the protein stability index runs as follows: under setting [1], 0.692 ± 0.01; (genetic background: wild type) 0.691 ± 0.023.

For IFQEAIDKTVEI [YML082W C-terminal 12 aa], the protein stability index came to 0.708 ± 0.0011 under setting [1] and 0.706 ± 0.029 (genetic background: wild type).

With IGAPASGLRIRV [COP1 C-terminal 12 aa], the protein stability index is 0.693 ± 0.0074 under setting [1] and 0.69199 ± 5.7e-06 (genetic background: wild type).

IGGLKREAEASA [GDH2 C-terminal 12 aa]: the protein stability index is, setting by setting: under setting [1], 0.695 ± 0.041; (genetic background: wild type) 0.719 ± 0.0075.

Turning to IHDFPKSHIVDF [IKI3 C-terminal 12 aa], the protein stability index came to 0.7325 ± 0.0027 under setting [1] and 0.733 ± 0.025 (genetic background: wild type).

For the sequence “IIRPLVLKNFII [YDR371C-A C-terminal 12 aa]”, the protein stability index is 0.5029 ± 0.0013 under setting [1] and 0.116 ± 0.0054 (genetic background: wild type).

With IIWEKRNPEQKI [ERG11 C-terminal 12 aa], the protein stability index is, setting by setting: under setting [1], 0.702 ± 0.023; (genetic background: wild type) 0.7138 ± 0.0069.

Take IKARNMKIDRTQ [COG4 C-terminal 12 aa]: the protein stability index under setting [1] amounted to 0.681 ± 0.018 and the protein stability index (genetic background: wild type) stood at 0.695 ± 0.041.

Sequence IKGWFVNGQVPR [PEX17 C-terminal 12 aa] registered a protein stability index under setting [1] of 0.716 ± 0.0072 and a protein stability index (genetic background: wild type) of 0.674 ± 0.029.

In the case of IKLEDAKGTHIK [RAD59 C-terminal 12 aa], the protein stability index reads like this: under setting [1], 0.695 ± 0.013; (genetic background: wild type) 0.6411 ± 0.0032.

In the case of IKMIKELGNHRL [RMD6 C-terminal 12 aa], the protein stability index under setting [1] came out at 0.684 ± 0.0078 and the protein stability index (genetic background: wild type) turned out to be 0.646 ± 0.026.

In the case of IKSLFSLAKEAS [MSC7 C-terminal 12 aa], the protein stability index reads like this: under setting [1], 0.703 ± 0.01; (genetic background: wild type) 0.5867 ± 0.0023.

Consider IKVDNIVHIRND [YFH7 C-terminal 12 aa], for which the protein stability index under setting [1] is 0.6928 ± 0.0038 and the protein stability index (genetic background: wild type) was determined as 0.723 ± 0.039.

Take ILEAWEKVDDSL [SNX4 C-terminal 12 aa]: the protein stability index reads like this: under setting [1], 0.734 ± 0.013; (genetic background: wild type) 0.734 ± 0.016.

Turning to ILQCFTDEILNC [NDJ1 C-terminal 12 aa], the protein stability index was 0.691 ± 0.0087 under setting [1] and 0.68 ± 0.022 (genetic background: wild type).

With ILRILANSNDDN [BXI1 C-terminal 12 aa], the protein stability index runs as follows: under setting [1], 0.699 ± 0.036; (genetic background: wild type) 0.6562 ± 0.0062.

For the sequence ILSWYFLETVAV [YMR254C C-terminal 12 aa], the protein stability index by setting is: under setting [1], 0.317 ± 0.024; (genetic background: wild type) 0.34 ± 0.018.

INEDNKAYSLDY [RIM4 C-terminal 12 aa] displayed a protein stability index under setting [1] of 0.69877 ± 0.00035 and a protein stability index (genetic background: wild type) of 0.722 ± 0.026.

Take IPLTEFDLSDSK [YMR253C C-terminal 12 aa]: the protein stability index is 0.701 ± 0.0095 under setting [1] and 0.73422 ± 0.00045 (genetic background: wild type).

Consider IQESRFNFYLIT [RKM5 C-terminal 12 aa], for which the protein stability index is, setting by setting: under setting [1], 0.683 ± 0.023; (genetic background: wild type) 0.6241 ± 0.0035.

In the case of IRDEGLNNLDTA [YPL257W C-terminal 12 aa], the protein stability index under setting [1] is 0.6944 ± 0.006 and the protein stability index (genetic background: wild type) turned out to be 0.704 ± 0.019.

For IRLFRSARRWVG [ADE6 C-terminal 12 aa], the protein stability index amounted to 0.7017 ± 0.0011 under setting [1] and 0.66 ± 0.0083 (genetic background: wild type).

For the sequence IRSRGRLKEVYF [SLX5 C-terminal 12 aa], the protein stability index is, setting by setting: under setting [1], 0.732 ± 0.026; (genetic background: wild type) 0.68566 ± 0.00055.

ISDNVPKEAIIM [PSA1 C-terminal 12 aa]: the protein stability index by setting is: under setting [1], 0.686 ± 0.023; (genetic background: wild type) 0.631 ± 0.034.

Turning to ISGGTFGFRSEI [HBT1 C-terminal 12 aa], the protein stability index reads like this: under setting [1], 0.696 ± 0.02; (genetic background: wild type) 0.7165 ± 0.0021.

For the sequence ISIVACALWLVF [DCW1 C-terminal 12 aa], the protein stability index came to 0.288 ± 0.003 under setting [1] and 0.291 ± 0.0036 (genetic background: wild type).

For ISKVSNTRVCCT [YAL004W C-terminal 12 aa], the protein stability index under setting [1] is 0.6431 ± 0.0031 and the protein stability index (genetic background: wild type) amounted to 0.654 ± 0.017.

With “ISSKSIPSVDDK [YIL071W-A C-terminal 12 aa]”, the protein stability index is, setting by setting: under setting [1], 0.677 ± 0.025; (genetic background: wild type) 0.706 ± 0.067.

In the case of ISVSSGIENFAT [YJL202C C-terminal 12 aa], the protein stability index by setting is: under setting [1], 0.692 ± 0.042; (genetic background: wild type) 0.654 ± 0.019.

Regarding ITFIASLMTLNK [SAC6 C-terminal 12 aa], the protein stability index reads like this: under setting [1], 0.66916 ± 0.0005; (genetic background: wild type) 0.679 ± 0.021.

In turn, “ITSQDILASTDY [YHL009W-B C-terminal 12 aa]” registered a protein stability index under setting [1] of 0.688 ± 0.015 and a protein stability index (genetic background: wild type) of 0.711 ± 0.027.

In turn, “ITSYNFLGVPFK [YLR406C-A C-terminal 12 aa]” displayed a protein stability index under setting [1] of 0.746 ± 0.018 and a protein stability index (genetic background: wild type) of 0.724 ± 0.043.

In the case of IVALILNTRGSE [VMA11 C-terminal 12 aa], the protein stability index reads like this: under setting [1], 0.683 ± 0.0096; (genetic background: wild type) 0.668 ± 0.028.

For the sequence IVKAVKEVLSIE [PDB1 C-terminal 12 aa], the protein stability index reads like this: under setting [1], 0.683 ± 0.0044; (genetic background: wild type) 0.667 ± 0.044.

With IVLPENIPLLYK [YJL195C C-terminal 12 aa], the protein stability index amounted to 0.694 ± 0.037 under setting [1] and 0.672 ± 0.023 (genetic background: wild type).

Turning to IVPLSELEKTLI [XKS1 C-terminal 12 aa], the protein stability index reads like this: under setting [1], 0.696 ± 0.016; (genetic background: wild type) 0.687 ± 0.0097.

In the case of IVPSQGKKVKFD [NOP13 C-terminal 12 aa], the protein stability index stood at 0.679 ± 0.0068 under setting [1] and 0.676 ± 0.011 (genetic background: wild type).

IYKCEDERIDYF [KOG1 C-terminal 12 aa]: the protein stability index is 0.6594 ± 0.00099 under setting [1] and 0.726 ± 0.015 (genetic background: wild type).

With IYLLSDYEKDNI [CMR2 C-terminal 12 aa], the protein stability index by setting is: under setting [1], 0.709 ± 0.044; (genetic background: wild type) 0.684 ± 0.0073.

Regarding KAELDRYKRENQ [SEM1 C-terminal 12 aa], the protein stability index by setting is: under setting [1], 0.7052 ± 0.0058; (genetic background: wild type) 0.709 ± 0.049.

Regarding KAFVIGAIALVA [YMR317W C-terminal 12 aa], the protein stability index was found to be 0.331 ± 0.01 under setting [1] and 0.341 ± 0.0043 (genetic background: wild type).

With KALELILNILEH [SNU56 C-terminal 12 aa], the protein stability index by setting is: under setting [1], 0.683 ± 0.033; (genetic background: wild type) 0.667 ± 0.012.

For the sequence KARLTEEQHRHE [CWC21 C-terminal 12 aa], the protein stability index reads like this: under setting [1], 0.705 ± 0.0052; (genetic background: wild type) 0.697 ± 0.019.

As for KAVEFTTTALSS [MKT1 C-terminal 12 aa], the protein stability index by setting is: under setting [1], 0.715 ± 0.0089; (genetic background: wild type) 0.747 ± 0.11.

As to KCQTKHTFTGLI [YGR269W C-terminal 12 aa], the protein stability index runs as follows: under setting [1], 0.695 ± 0.0072; (genetic background: wild type) 0.723 ± 0.021.

KDEINYLNSKLK [SPA2 C-terminal 12 aa]: the protein stability index runs as follows: under setting [1], 0.692 ± 0.07; (genetic background: wild type) 0.706 ± 0.083.

KDVIVDHHSDLN [SAP4 C-terminal 12 aa]: the protein stability index is, setting by setting: under setting [1], 0.706 ± 0.048; (genetic background: wild type) 0.701 ± 0.052.

As to KEQEESEKDKEN [BFR1 C-terminal 12 aa], the protein stability index reads like this: under setting [1], 0.732 ± 0.015; (genetic background: wild type) 0.69 ± 0.05.
